Source: publication PMC5714612 (Cell Reports, 2017)
Residue numbers refer to the chain shown, from its start. In names and notes the source's numbering stands. Each block holds one molecule with its values, some of them ahead of it.

T1: Recombinant His-tagged S135E Syt4 (rat, UniProt P50232 1-425, S135E)
T1 sequence (looked up): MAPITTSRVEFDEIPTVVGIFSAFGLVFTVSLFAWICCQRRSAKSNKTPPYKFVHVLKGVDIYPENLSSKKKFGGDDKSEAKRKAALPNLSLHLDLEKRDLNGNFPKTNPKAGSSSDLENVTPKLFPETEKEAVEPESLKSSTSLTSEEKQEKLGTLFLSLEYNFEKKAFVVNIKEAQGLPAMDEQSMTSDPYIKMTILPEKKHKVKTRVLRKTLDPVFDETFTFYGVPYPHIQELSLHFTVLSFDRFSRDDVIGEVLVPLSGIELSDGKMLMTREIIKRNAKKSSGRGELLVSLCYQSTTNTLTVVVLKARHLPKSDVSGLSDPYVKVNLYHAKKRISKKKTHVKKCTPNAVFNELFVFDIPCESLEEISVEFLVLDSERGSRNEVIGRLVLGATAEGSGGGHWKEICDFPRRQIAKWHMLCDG

B1: mCherry-tagged S135A Syt4 (phosphodeficient) (natural protein, rat, UniProt P50232 1-425, looked up)
chain: T1 sequence (looked up) with E135A
B2: mCherry-tagged S135E Syt4 (phosphomimetic) (natural protein, rat, UniProt P50232 1-425, looked up)
chain: T1 sequence (looked up)
B3: Kif1A-GFP (natural protein, rat, UniProt F1M4A4 1-1707, looked up)
chain: MAGASVKVAVRVRPFNSREMSRDSKCIIQMSGSTTTIVNPKQPKETPKSFSFDYSYWSHTSPEDINYASQKQVYRDIGEEMLQHAFEGYNVCIFAYGQTGAGKSYTMMGKQEKDQQGIIPQLCEDLFSRINDTTNDNMSYSVEVSYMEIYCERVRDLLNPKNKGNLRVREHPLLGPYVEDLSKLAVTSYNDIQDLMDSGNKARTVAATNMNETSSRSHAVFNIIFTQKRHDAETNITTEKVSKISLVDLAGSERADSTGAKGTRLKEGANINKSLTTLGKVISALAEMDSGPNKNKKKKKTDFIPYRDSVLTWLLRENLGGNSRTAMVAALSPADINYDETLSTLRYADRAKQIRCNAIINEDPNNKLIRELKDEVTRLRDLLYAQGLGDITDTNTVPGGPKLTNALVGMSPSSSLSALSSRAASVSSLHERILFAPGSEEAIERLKETEKIIAELNETWEEKLRRTEAIRMEREALLAEMGVAMREDGGTLGVFSPKKTPHLVNLNEDPLMSECLLYYIKDGVTRVGREDAERRQDIVLSGHFIKEEHCIFRSDSRGGGEAVVTLEPCEGADTYVNGKKVTEPSILRSGNRIIMGKSHVFRFNHPEQARQERERTPCAETPAEPVDWAFAQRELLEKQGIDMKQEMEQRLQELEDQYRREREEATYLLEQQRLDYESKLEALQKQMDSRYYPEVNEEEEEPEDEVQWTERECELALWAFRKWKWYQFTSLRDLLWGNAIFLKEANAISVELKKKVQFQFVLLTDTLYSPLPPDLLPPEAAKDRETRPFPRTIVAVEVQDQKNGATHYWTLEKLRQRLDLMREMYDRAAEVPSSVVEDCDNVVTGGDPFYDRFPWFRLVGRAFVYLSNLLYPVPLVHRVAIVSEKGEVKGFLRVAVQAISADEEAPDYGSGVRQSGTAKISFDDQHFEKFQSESCPVVGMSRSGTSQEELRIVEGQGQGADAGPSADEVNNNTCSAVPPEGLLDSPEKAALDGPLDTALDHLRLGSTFTFRVTVLQASSISAEYADIFCQFNFIHRHDEAFSTEPLKNTGRGPPLGFYHVQNIAVEVTKSFIEYIKSQPIVFEVFGHYQQHPFPPLCKDVLSPLRPSRRHFPRVMPLSKPVPATKLSTMTRPSPGPCHCKYDLLVYFEICELEANGDYIPAVVDHRGGMPCMGTFLLHQGIQRRITVTLLHETGSHIRWKEVRELVVGRIRNTPETDEALIDPNILSLNILSSGYVHPAQDDRQFLDSDIPRTFYQFEAAWDSSMHNSLLLNRVTPYREKIYMTLSAYIEMENCTQPAVITKDFCMVFYSRDAKLPASRSIRNLFGSGSLRATEGNRVTGVYELSLCHVADAGSPGMQRRRRRVLDTSVAYVRGEENLAGWRPRSDSLILDHQWELEKLSLLQEVEKTRHYLLLREKLETTQRPVPEVLSPASSEDSESRSSSGASSPLSAEGQPSPLEVPNERQRELAVKCLRLLMHTFNREYTHSHVCISASESKLSEMSVTLMRDPSMSPLGAATLTPSSTCPSLIEGRYGATDVRTPQPCSRPASPEPELLPELDSKKTPSPVRATETEKEPQRLLVPDIQEIRVSPIVSKKGYLHFLEPHTAGWAKRFVVVRRPYAYMYNSDKDTVERFVLNLSTAQVEYSEDQQAMLKTPNTFAVCTEHRGILLQANSDKDMHDWLYAFNPLLAGTIRSKLSRRRSAQMRV
B4: endogenous Kif1A (natural protein, UniProt P33173 1-1695, looked up)
chain: MAGASVKVAVRVRPFNSREMSRDSKCIIQMSGSTTTIVNPKQPKETPKSFSFDYSYWSHTSPEDINYASQKQVYRDIGEEMLQHAFEGYNVCIFAYGQTGAGKSYTMMGKQEKDQQGIIPQLCEDLFSRINDTTNDNMSYSVEVSYMEIYCERVRDLLNPKNKGNLRVREHPLLGPYVEDLSKLAVTSYNDIQDLMDSGNKPRTVAATNMNETSSRSHAVFNIIFTQKRHDAETNITTEKVSKISLVDLAGSERADSTGAKGTRLKEGANINKSLTTLGKVISALAEMDSGPNKNKKKKKTDFIPYRDSVLTWLLRENLGGNSRTAMVAALSPADINYDETLSTLRYADRAKQIRCNAIINEDPNNKLIRELKDEVTRLRDLLYAQGLGDITDMTNALVGMSPSSSLSALSSRAASVSSLHERILFAPGSEEAIERLKETEKIIAELNETWEEKLRRTEAIRMEREALLAEMGVAMREDGGTLGVFSPKKTPHLVNLNEDPLMSECLLYYIKDGVTRVGREDAERRQDIVLSGHFIKEEHCIFRSDSRGGGEAVVTLEPCEGADTYVNGKKVTEPSILRSGNRIIMGKSHVFRFNHPEQARQERERTPCAETPAEPVDWAFAQRELLEKQGIDMKQEMEQRLQELEDQYRREREEATYLLEQQRLDYESKLEALQKQMDSRYYPEVNEEEEEPEDEVQWTERECELALWAFRKWKWYQFTSLRDLLWGNAIFLKEANAISVELKKKVQFQFVLLTDTLYSPLPPDLLPPEAAKDRETRPFPRTIVAVEVQDQKNGATHYWTLEKLRQRLDLMREMYDRAAEVPSSVVEDCDNVVTGGDPFYDRFPWFRLVGRAFVYLSNLLYPVPLVHRVAIVSEKGEVKGFLRVAVQAISADEEAPDYGSGVRQSGTAKISFDDQHFEKFQSESCPVVGMSRSGTSQEELRIVEGQGQGADAGPSADEVNNNTCSAVPPEGLMDSPEKAALDGPLDTALDHLRLGSTFTFRVTVLQASSISAEYADIFCQFNFIHRHDEAFSTEPLKNTGRGPPLGFYHVQNIAVEVTKSFIEYIKSQPIVFEVFGHYQQHPFPPLCKDVLSPLRPSRRHFPRVMPLSKPVPATKLSTMTRPSPGPCHCKYDLLVYFEICELEANGDYIPAVVDHRGACMGTFLLHQGIQRRITVTLLHETGSHIRWKEVRELVVGRIRNTPETDEALIDPNILSLNILSSGYVHPAQDDRVFFGNDTRTFYQFEAAWDSSMHNSLLLNRVTPYREKIYMTLSAYIEMENCTQPAVITKDFCMVFYSRDAKLPASRSIRNLFGSGSLRATEGNRVTGVYELSLCHVADAGSPGMQRRRRRVLDTSVAYVRGEENLAGWRPRSDSLILDHQWELEKLSLLQEVEKTRHYLLLREKLETTQRPGPEVLSPASSEDSESRSSSGASSPLSAEGQPSPLEAPNERQRELAVKCLRLLMHTFNREYTHSHVCISASESKLSEMSVTLMRDPSMSPLGAATLTPSSTCPSLIEGRYGATDVRTPQPCSRPASPEPELLPELDSKKTPSPVRATETEKEPQRLLVPDIQEIRVSPIVSKKGYLHFLEPHTAGWAKRFVVVRRPYAYMYNSDKDTVERFVLNLSTAQVEYSEDQQAMLKTPNTFAVCTEHRGILLQANSDKDMHDWLYAFNPLLAGTIRSKLSRRRSAQMRV

Assays:
[1] = target: Kif1A (Kif1A-GFP, GST-tagged full-length Kif1A) (UniProt F1M4A4); test: co-IP with GFP-Trap beads, Syt4 blotted; details: reference: S135A; sites S135
[2] = target: B3; test: co-IP
[3] = target: B1; test: co-IP
[4] = target: B2; test: co-IP
[5] = target: T1, Recombinant His-tagged S135E Syt4; test: pull-down

other: percent of WT [1]: weaker; reference 134.4 ± 11.1
Molecule: Synaptotagmin-4 (Syt4) (from UniProt P50232) S135E

Molecule: B1
amount co-immunoprecipitated, percent of WT [2]: 134 % of WT

Molecule: B2
amount co-immunoprecipitated, percent of WT [2]: 42.9 % of WT

Molecule: B3
amount co-immunoprecipitated, percent of WT [3]: 158 % of WT
amount co-immunoprecipitated, percent of WT [4]: 87 % of WT

Molecule: B4
amount pulled down, percent of WT [5]: 43.6 % of WT
